Assay results published in publication PMC3114773.

Molecular target: β-arrestin2 (β-arr2) (UniProt Q91YI4)
Test: co-IP, anti-Myc IP, anti-GFP blot
Settings: reference: wild type; sites S592,S594,T597,S599,S615,S619,S620,S642,S666,S774,S777,S791

- binding against the reference: weaker
Substance: Smo (mSmo, mammalian Smoothened) (from UniProt P56726) SA mutant (taken as SA0–5)
